This note sets out measurements from patent publication US20240199716A1 (ANTLIA BIOSCIENCE, published 2024).

Experiment [1] concerns the target human natriuretic polypeptide receptor hNPR1 (the membrane-bound guanylate cyclase receptor of BNP) (human) (UniProt P16066). In words: cell-based or functional assay.
For experiment [2], the target named is T1, human natriuretic polypeptide receptor hNPR1 (the membrane-bound guanylate cyclase receptor of BNP) (human, UniProt P16066 33-1061).
T1 sequence (looked up): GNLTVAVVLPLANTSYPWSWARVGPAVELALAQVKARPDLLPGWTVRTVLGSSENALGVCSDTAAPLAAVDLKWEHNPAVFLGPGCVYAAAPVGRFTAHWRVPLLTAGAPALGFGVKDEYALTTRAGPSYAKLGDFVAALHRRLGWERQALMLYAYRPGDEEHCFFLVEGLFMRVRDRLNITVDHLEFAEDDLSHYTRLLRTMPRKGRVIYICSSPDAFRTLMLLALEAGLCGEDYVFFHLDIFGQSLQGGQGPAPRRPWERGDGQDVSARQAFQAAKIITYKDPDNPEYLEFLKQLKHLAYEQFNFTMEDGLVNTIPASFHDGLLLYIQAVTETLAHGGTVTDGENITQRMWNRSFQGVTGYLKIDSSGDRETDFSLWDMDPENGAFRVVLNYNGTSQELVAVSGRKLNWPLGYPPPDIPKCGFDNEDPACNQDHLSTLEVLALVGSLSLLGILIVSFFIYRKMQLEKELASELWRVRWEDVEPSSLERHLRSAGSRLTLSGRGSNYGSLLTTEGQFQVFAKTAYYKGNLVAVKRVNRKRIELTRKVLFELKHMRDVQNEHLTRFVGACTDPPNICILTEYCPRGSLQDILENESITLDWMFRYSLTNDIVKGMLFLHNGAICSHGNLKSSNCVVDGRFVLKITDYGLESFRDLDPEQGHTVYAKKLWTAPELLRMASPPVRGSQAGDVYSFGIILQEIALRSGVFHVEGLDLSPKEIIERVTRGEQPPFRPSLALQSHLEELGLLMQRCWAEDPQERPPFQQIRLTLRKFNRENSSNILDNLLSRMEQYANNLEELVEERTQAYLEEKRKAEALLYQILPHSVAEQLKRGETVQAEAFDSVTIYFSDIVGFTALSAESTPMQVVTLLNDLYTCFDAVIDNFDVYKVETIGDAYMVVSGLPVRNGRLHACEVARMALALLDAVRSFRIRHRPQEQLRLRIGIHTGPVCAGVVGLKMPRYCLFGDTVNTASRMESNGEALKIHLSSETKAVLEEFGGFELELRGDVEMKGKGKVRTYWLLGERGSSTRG
In words: cell-based or functional assay.

Turning to PAS400-hBNP(1-32) (ligand), in experiment [1], the Log dose ratio from hBNP(1-32) (NPR-1 cGMP assay, HEK293T/17) is 1.58; the Maximum % control (cGMP HTRF, % response to BNP1-32 10 µM) turned out to be 97.3%; the PEC50 (n) (cGMP HTRF, transiently transfected HEK293T/17 cells) is 6.49; the Potency fold loss from hBNP(1-32) (NPR-1 cGMP assay, HEK293T/17) was determined as 38.2 fold. In experiment [1], this molecule gave a fold reduction in potency relative to PAS200 (NPR-1 cGMP assay, HEK293T/17) of 5.2 fold and a pEC50 of 6.49.

Turning to PAS600-hBNP(1-32) (ligand), in experiment [1], the Log dose ratio from hBNP(1-32) (NPR-1 cGMP assay, HEK293T/17) turned out to be 1.5; the Maximum % control (cGMP HTRF, % response to BNP1-32 10 µM) amounted to 97.4%; the PEC50 (n) (cGMP HTRF, transiently transfected HEK293T/17 cells) worked out at 6.57; the Potency fold loss from hBNP(1-32) (NPR-1 cGMP assay, HEK293T/17) was 31.8 fold. Moreover, the pEC50 in experiment [1] stood at 6.57.

As to PAS800-hBNP(1-32) (ligand), in experiment [1], the Log dose ratio from hBNP(1-32) (NPR-1 cGMP assay, HEK293T/17) worked out at 1.54; the Maximum % control (cGMP HTRF, % response to BNP1-32 10 µM) turned out to be 89.1%; the PEC50 (n) (cGMP HTRF, transiently transfected HEK293T/17 cells) turned out to be 6.53; the Potency fold loss from hBNP(1-32) (NPR-1 cGMP assay, HEK293T/17) was found to be 34.3 fold. The same molecule showed a pEC50 in experiment [1] of 6.53.

B1: Compound 3, P-(SEQ ID No:2)10-A-hBNP(6-32) (PAS attached to N-terminus of glutamine 6) (ligand)
chain: PASPAAPAPASPAAPAPSAPAASPAAPAPASPAAPAPSAPAASPAAPAPASPAAPAPSAPAASPAAPAPASPAAPAPSAPAASPAAPAPASPAAPAPSAPAASPAAPAPASPAAPAPSAPAASPAAPAPASPAAPAPSAPAASPAAPAPASPAAPAPSAPAASPAAPAPASPAAPAPSAPAASPAAPAPASPAAPAPSAPAAQGSGCFGRKMDRISSSSGLGCKVLRRH
In the case of B1, in experiment [2], the “log EC50 (cGMP, TR-FRET, % Activation, CHO-K1 cells transfected with hNPR1)” value is -7.31; the “log dose ratio from hBNP(1-32) (hNPR1 cGMP agonist assay)” value was -1.92; the “potency fold loss from hBNP(1-32) (hNPR1 cGMP agonist assay)” value was determined as 83 fold.

B2: Compound 5, hBNP(1-30)-(SEQ ID No:2)10-A (PAS attached to carboxy group of the C-terminal arginine 30) (ligand)
chain: SPKMVQGSGCFGRKMDRISSSSGLGCKVLRASPAAPAPASPAAPAPSAPAASPAAPAPASPAAPAPSAPAASPAAPAPASPAAPAPSAPAASPAAPAPASPAAPAPSAPAASPAAPAPASPAAPAPSAPAASPAAPAPASPAAPAPSAPAASPAAPAPASPAAPAPSAPAASPAAPAPASPAAPAPSAPAASPAAPAPASPAAPAPSAPAASPAAPAPASPAAPAPSAPAA
Take B2: in experiment [2], the “log EC50 (cGMP, TR-FRET, % Activation, CHO-K1 cells transfected with hNPR1)” value is -7.28; the “log dose ratio from hBNP(1-32) (hNPR1 cGMP agonist assay)” value was -1.95; the “potency fold loss from hBNP(1-32) (hNPR1 cGMP agonist assay)” value turned out to be 89 fold.

B3: Compound 2, P-(SEQ ID No:2)10-A-hBNP(3-32) (PAS attached to the alpha amino group of the N-terminal lysine 3) (ligand)
chain: PASPAAPAPASPAAPAPSAPAASPAAPAPASPAAPAPSAPAASPAAPAPASPAAPAPSAPAASPAAPAPASPAAPAPSAPAASPAAPAPASPAAPAPSAPAASPAAPAPASPAAPAPSAPAASPAAPAPASPAAPAPSAPAASPAAPAPASPAAPAPSAPAASPAAPAPASPAAPAPSAPAASPAAPAPASPAAPAPSAPAAKMVQGSGCFGRKMDRISSSSGLGCKVLRRH
Take B3: in experiment [2], the “log EC50 (cGMP, TR-FRET, % Activation, CHO-K1 cells transfected with hNPR1)” value was -7.84; the “log dose ratio from hBNP(1-32) (hNPR1 cGMP agonist assay)” value was -1.39; the “potency fold loss from hBNP(1-32) (hNPR1 cGMP agonist assay)” value came to 25 fold.

Broadly, the pEC50 is the negative decadic logarithm of the EC50, by convention in mol/L. A high value points to a small EC50.
